The results in this text go back to article PMC3141235.

In the experiment the target is yAsf1 mutant V94R labeled with Alexa Fluor 532 (S. cerevisiae). Put plainly: other fluorescence titration.

By Kd is commonly meant the concentration at which binding is half-saturated. Consider “X. laevis H3^C110A / H4^T71C labeled with the Qsy9 fluorescence quencher (complex)”, for which the dissociation constant (Kd) is 290 nM.
